Earlier results as cited in patent US10385327B2, “Enhanced E. coli for the production of fatty acids and method of producing the same” (University of Puerto Rico, priority 2012, dated 2019).

Tests used:
[1] = tested on: E. coli BL21-DE3-CodonPlus (RIL) cells; conditions: previous work by others
[2] = literature value for FAS dehydratase construct

B1: E. coli FabA dehydratase: DH enzyme involved in fatty acid biosynthesis in E. coli (protein, UniProt P0A6Q3 2-172, looked up)
3-hydroxydecanoyl-[acyl-carrie …: VDKRESYTKEDLLASGRGELFGAKGPQLPAPNMLMMDRVVKMTETGGNFDKGYVEAELDINPDLWFFGCHFIGDPVMPGCLGLDAMWQLVGFYLGWLGGEGKGRALGVGEVKFTGQVLPTAKKVTYRIHFKRIVNRRLIMGLADGEVLVDGRLIYTASDLKVGLFQDTSAF
[1]
  effect of overexpression on production of fatty acids in E. coli: does not increase the production of fatty acids

B2: FAS 1-1168 construct: Fatty Acid Synthase construct of Pasta et al., 2007, literature comparator for dehydratase specific activity (protein, UniProt P49327 1-1168, looked up, fragment)
chain: MEEVVIAGMSGKLPESENLQEFWDNLIGGVDMVTDDDRRWKAGLYGLPRRSGKLKDLSRFDASFFGVHPKQAHTMDPQLRLLLEVTYEAIVDGGINPDSLRGTHTGVWVGVSGSETSEALSRDPETLVGYSMVGCQRAMMANRLSFFFDFRGPSIALDTACSSSLMALQNAYQAIHSGQCPAAIVGGINVLLKPNTSVQFLRLGMLSPEGTCKAFDTAGNGYCRSEGVVAVLLTKKSLARRVYATILNAGTNTDGFKEQGVTFPSGDIQEQLIRSLYQSAGVAPESFEYIEAHGTGTKVGDPQELNGITRALCATRQEPLLIGSTKSNMGHPEPASGLAALAKVLLSLEHGLWAPNLHFHSPNPEIPALLDGRLQVVDQPLPVRGGNVGINSFGFGGSNVHIILRPNTQPPPAPAPHATLPRLLRASGRTPEAVQKLLEQGLRHSQDLAFLSMLNDIAAVPATAMPFRGYAVLGGERGGPEVQQVPAGERPLWFICSGMGTQWRGMGLSLMRLDRFRDSILRSDEAVKPFGLKVSQLLLSTDESTFDDIVHSFVSLTAIQIGLIDLLSCMGLRPDGIVGHSLGEVACGYADGCLSQEEAVLAAYWRGQCIKEAHLPPGAMAAVGLSWEECKQRCPPGVVPACHNSKDTVTISGPQAPVFEFVEQLRKEGVFAKEVRTGGMAFHSYFMEAIAPPLLQELKKVIREPKPRSARWLSTSIPEAQWHSSLARTSSAEYNVNNLVSPVLFQEALWHVPEHAVVLEIAPHALLQAVLKRGLKPSCTIIPLMKKDHRDNLEFFLAGIGRLHLSGIDANPNALFPPVEFPAPRGTPLISPLIKWDHSLAWDVPAAEDFPNGSGSPSAAIYNIDTSSESPDHYLVDHTLDGRVLFPATGYLSIVWKTLARALGLGVEQLPVVFEDVVLHQATILPKTGTVSLEVRLLEASRAFEVSENGNLVVSGKVYQWDDPDPRLFDHPESPTPNPTEPLFLAQAEVYKELRLRGYDYGPHFQGILEASLEGDSGRLLWKDNWVSFMDTMLQMSILGSAKHGLYLPTRVTAIHIDPATHRQKLYTLQDKAQVADVVVSRWLRVTVAGGVHISGLHTESAPRRQQEQQVPILEKFCFTPHTEEGCLSERAALQEELQLCKGLVQALQTKVTQQGLKMVVPGLDGAQ
[2]
  specific activity reported (Pasta et al., 2007): 204 mol product/(min*mol enzyme)
